Measurements: patent publication US20130115626A1 (Genentech, published 2013)

Molecular target: T1, full length human NRP1 on transfected HEK-293 cells (human, UniProt O14786 22-923)
T1 construct: whole, on cells; also called HEK-293 cells transfected with human NRP1
Assay: immunohistochemistry on transfected HEK-293 cells, antibody at 1 ug/ml; cells with empty vector as negative control
Experimental: Immunohistochemistry (IHC) was performed on freshly cut tissue sections following standard procedure. […] The specificity of the anti-NRP1 antibody was assessed using HEK-293 cells transfected with human NRP1 and empty vector as control (see FIGS. 1A and 1B). To assess expression, whole sections were scored semi-quantitatively on a scale of zero (no expression) to three (very strong signal), according to the intensity of chromagen deposition in ≧10% of neoplastic cells or endothelium.

T1 sequence (O14786 22-923): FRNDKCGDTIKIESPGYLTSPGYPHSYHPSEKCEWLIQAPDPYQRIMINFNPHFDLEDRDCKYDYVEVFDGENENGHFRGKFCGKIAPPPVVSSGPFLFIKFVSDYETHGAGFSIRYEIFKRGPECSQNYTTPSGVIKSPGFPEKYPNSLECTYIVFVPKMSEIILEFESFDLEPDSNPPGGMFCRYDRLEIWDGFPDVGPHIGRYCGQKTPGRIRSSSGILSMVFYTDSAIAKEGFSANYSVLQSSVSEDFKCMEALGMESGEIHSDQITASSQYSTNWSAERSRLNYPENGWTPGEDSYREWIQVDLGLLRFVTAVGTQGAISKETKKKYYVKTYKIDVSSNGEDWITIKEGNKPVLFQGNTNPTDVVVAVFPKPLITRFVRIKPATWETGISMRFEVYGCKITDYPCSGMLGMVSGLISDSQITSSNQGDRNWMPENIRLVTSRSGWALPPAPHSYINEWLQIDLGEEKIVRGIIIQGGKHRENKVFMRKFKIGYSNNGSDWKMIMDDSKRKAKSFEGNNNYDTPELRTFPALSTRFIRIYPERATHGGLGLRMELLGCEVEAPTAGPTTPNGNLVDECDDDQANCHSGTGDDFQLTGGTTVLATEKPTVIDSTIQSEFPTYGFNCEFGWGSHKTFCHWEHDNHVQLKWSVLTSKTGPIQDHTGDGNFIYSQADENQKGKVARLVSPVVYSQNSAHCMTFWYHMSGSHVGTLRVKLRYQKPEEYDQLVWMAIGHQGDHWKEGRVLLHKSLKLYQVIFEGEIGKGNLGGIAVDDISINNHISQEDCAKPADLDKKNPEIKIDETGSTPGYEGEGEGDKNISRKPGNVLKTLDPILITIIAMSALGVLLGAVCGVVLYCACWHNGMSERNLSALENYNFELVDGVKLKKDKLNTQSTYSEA

- binding result: binds
B1: monoclonal anti-NRP1 antibody 7130 (antibody, V domains shown)
VH: QLVEESGGGLVTPGGTLTLTCTASGFTISNYHMSWVRQAPGKGLEWIGIIYAVSAATWSATWVKGRFTISKTLTTVDLKMTSLTAADTATYFCARVRAPGDSTYYDLWGPGTLVTVSS
VL: AVVMTQTASPVSAVVGGTVTINCQASQTISNNWLSWYQQKPGQPPKLLIYKASILASGVPSRFSGSGSGTEFTLTISGVQCDDAATYYCLYGHYITTSAHNAFGGGTEVVVKG
notes: Rabbit monoclonal antibody from a hybridoma (rabbit immunised with human soluble NRP1)
